Results reported in publication doi:10.1101/2021.04.26.441533 (bioRxiv, 2021).
Changes are numbered by the printed parent chain.

What was measured:
Experiment in all cases: single-molecule magnetic tweezers
vinculin T12 mutant = target: T1, vinculin T12 mutant (UniProt P18206-2 1-1066, D974A | K975A | R976A | R978A)
T1 sequence (looked up): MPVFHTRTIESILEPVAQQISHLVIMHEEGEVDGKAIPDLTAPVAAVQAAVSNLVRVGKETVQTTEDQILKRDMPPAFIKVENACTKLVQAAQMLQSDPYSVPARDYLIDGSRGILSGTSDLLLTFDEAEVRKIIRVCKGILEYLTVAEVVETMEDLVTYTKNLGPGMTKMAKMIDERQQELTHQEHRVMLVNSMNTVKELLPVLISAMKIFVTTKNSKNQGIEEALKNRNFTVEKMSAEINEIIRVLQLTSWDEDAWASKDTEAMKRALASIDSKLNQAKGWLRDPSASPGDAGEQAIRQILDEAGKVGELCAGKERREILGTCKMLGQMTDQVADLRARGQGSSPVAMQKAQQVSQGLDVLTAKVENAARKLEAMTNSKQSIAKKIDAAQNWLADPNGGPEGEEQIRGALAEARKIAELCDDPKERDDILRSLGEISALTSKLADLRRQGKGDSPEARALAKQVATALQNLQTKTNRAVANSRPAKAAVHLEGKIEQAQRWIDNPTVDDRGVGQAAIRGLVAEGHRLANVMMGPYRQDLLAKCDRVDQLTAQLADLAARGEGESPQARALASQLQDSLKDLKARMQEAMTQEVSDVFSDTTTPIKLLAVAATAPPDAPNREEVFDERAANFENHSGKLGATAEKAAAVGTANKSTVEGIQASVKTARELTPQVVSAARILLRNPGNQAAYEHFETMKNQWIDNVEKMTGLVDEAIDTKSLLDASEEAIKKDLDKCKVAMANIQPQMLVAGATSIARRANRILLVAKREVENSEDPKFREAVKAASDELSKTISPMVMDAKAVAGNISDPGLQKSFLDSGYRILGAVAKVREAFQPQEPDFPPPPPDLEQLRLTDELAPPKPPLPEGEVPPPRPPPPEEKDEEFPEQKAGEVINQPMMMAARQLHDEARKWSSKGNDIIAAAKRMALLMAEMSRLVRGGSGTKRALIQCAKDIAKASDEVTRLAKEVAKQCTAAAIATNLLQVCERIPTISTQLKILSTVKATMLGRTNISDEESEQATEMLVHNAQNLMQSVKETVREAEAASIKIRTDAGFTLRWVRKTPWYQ

vinculin head (D1-D4) = target: T2, vinculin head (D1-D4) (UniProt P18206-2 1-835)
T2 sequence (looked up): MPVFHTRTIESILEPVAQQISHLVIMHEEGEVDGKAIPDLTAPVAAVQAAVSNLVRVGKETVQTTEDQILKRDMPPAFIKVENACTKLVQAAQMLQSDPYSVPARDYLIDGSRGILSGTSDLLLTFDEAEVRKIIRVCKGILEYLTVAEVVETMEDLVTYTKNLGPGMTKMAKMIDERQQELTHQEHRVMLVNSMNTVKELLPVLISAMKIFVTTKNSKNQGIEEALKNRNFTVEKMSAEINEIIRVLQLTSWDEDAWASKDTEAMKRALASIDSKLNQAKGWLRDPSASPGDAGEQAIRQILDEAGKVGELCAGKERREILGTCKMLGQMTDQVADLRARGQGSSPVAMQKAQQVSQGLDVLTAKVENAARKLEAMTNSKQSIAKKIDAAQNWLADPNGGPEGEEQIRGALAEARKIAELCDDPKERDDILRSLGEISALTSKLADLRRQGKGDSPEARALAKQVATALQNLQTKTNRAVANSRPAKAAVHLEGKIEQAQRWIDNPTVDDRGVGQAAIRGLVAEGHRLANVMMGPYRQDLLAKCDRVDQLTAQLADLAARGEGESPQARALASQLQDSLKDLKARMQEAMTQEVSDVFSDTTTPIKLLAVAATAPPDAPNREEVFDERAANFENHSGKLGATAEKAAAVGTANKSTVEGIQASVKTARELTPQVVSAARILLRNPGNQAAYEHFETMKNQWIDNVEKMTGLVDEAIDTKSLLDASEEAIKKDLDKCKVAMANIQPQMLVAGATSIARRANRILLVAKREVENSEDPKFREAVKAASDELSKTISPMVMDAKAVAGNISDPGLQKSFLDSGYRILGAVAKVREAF

[1] = target: T3, Full-length vinculin (FL-vinculin) (UniProt P18206-2 1-1066)
T3 sequence (looked up): T1 sequence (looked up) with A974D, A975K, A976R, A978R

B1: talin R4-R6 domains (stretchable talin R4-R6 fragment) (domain or fragment, UniProt P26039 913-1357, looked up)
chain: LVQRLEHAAKQAAASATQTIAAAQHAASAPKASAGPQPLLVQSCKAVAEQIPLLVQGVRGSQAQPDSPSAQLALIAASQSFLQPGGKMVAAAKASVPTIQDQASAMQLSQCAKNLGTALAELRTAAQKAQEACGPLEMDSALSVVQNLEKDLQEIKAAARDGKLKPLPGETMEKCTQDLGNSTKAVSSAIAKLLGEIAQGNENYAGIAARDVAGGLRSLAQAARGVAALTSDPAVQAIVLDTASDVLDKASSLIEEAKKASGHPGDPESQQRLAQVAKAVTQALNRCVSCLPGQRDVDNALRAVGDASKRLLSDSLPPSTGTFQEAQSRLNEAAAGLNQAATELVQASRGTPQDLARASGRFGQDFSTFLEAGVEMAGQAPSQEDRAQVVSNLKGISMSSSKLLLAAKALSTDPASPNLKSQLAAAARAVTDSINQLITMCTQQA
modifications: N-terminus linked to a superparamagnetic bead through a 572-bp double strand DNA linker
Kd (vinculin T12 mutant): 1.9 nM
koff (vinculin T12 mutant): 0.021 s⁻¹
kon (vinculin T12 mutant): 1.1e+07 M⁻¹ s⁻¹
Kd (vinculin head (D1-D4)): 0.6 nM
koff (vinculin head (D1-D4)): 0.0022 s⁻¹
kon (vinculin head (D1-D4)): 3.7e+06 M⁻¹ s⁻¹
koff [1]: 0.014 s⁻¹
kon [1]: 1e+06 M⁻¹ s⁻¹
